Measured values published in IntAct's records for PubMed 26455799.

B1: ADP-ribosylation factor-like protein 2 (Mus musculus), Q9D0J4 (parent)
chain: MGLLTILKKMKQKERELRLLMLGLDNAGKTTILKKFNGEDVDTISPTLGFNIKTLEHRGFKLNIWDVGGQKSLRSYWRNYFESTDGLIWVVDSADRQRMQDCQRELQSLLVEERLAGATLLIFANKQDLPGALSCNAIQEALELDSIRSHHWRIQGCSAVTGEDLLPGIDWLLDDISSRVFTAD
B2: Cilia- and flagella-associated protein 36 (Mus musculus), Q8C6E0 (parent)
chain: MAAEEEDEVEWVVESIAGFLRGPDWSIPILDFVEQKCEVFDDEEESKLTYTEIHQEYKELVEKLLESYLKEIGINEDQFQEACTSPLAKTRTSQAILQPVLAAEDFTIFKAMMVQKNIEMQLQAIRIIQERNGVLPDCLTDGADVVSDLEQEEMKILREVLRKSKEEYDQEEERKRKKQSSEAKMEELPVYTSEAEKMSNSQGDGEHFVQPPSEVKVHFANQSVQPLARKMELLPETSSLTQKGLKIPGLEHASMEGPIANLSALGTEELRQREHYLKQKRDKLLSMRKDTRTKQIQNTEQKGKPTREAEEMTEKPEMTAEEKQTLLKRRLLAEKLKEEVINK

Variants of: B1
Settings: with cfa36_mouse Cfap36, Q8C6E0

Row | effect of a mutation on the interaction | Variant
1 | decreasing interaction strength | MGLLTILKKMKQKERELRLLMLGLDNAGKTTILKKFNGEDVDTISPTLGANIKTLEHRGFKLNIWDVGGQKSLRSYWRNYFESTDGLIWVVDSADRQRMQDCQRELQSLLVEERLAGATLLIFANKQDLPGALSCNAIQEALELDSIRSHHWRIQGCSAVTGEDLLPGIDWLLDDISSRVFTAD
2 | decreasing interaction strength | MGLDTILKKMKQKERELRLLMLGLDNAGKTTILKKFNGEDVDTISPTLGFNIKTLEHRGFKLNIWDVGGQKSLRSYWRNYFESTDGLIWVVDSADRQRMQDCQRELQSLLVEERLAGATLLIFANKQDLPGALSCNAIQEALELDSIRSHHWRIQGCSAVTGEDLLPGIDWLLDDISSRVFTAD

Variants of: B2
Settings: with arl3_mouse Arl3, Q9WUL7
Chain of arl3_mouse Arl3, Q9WUL7 (Q9WUL7 whole entry): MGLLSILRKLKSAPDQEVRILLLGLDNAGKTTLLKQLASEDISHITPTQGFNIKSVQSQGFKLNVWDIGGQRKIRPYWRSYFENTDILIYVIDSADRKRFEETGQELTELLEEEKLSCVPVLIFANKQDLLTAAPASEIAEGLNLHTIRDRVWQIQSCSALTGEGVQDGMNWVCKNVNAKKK

Row | effect of a mutation on the interaction | Variant
3 | decreasing interaction strength | L65D;C83R;V100H
4 | decreasing interaction strength | L65D;C83R

More lines, now with the values behind:

Row | Variant | effect of a mutation on the interaction
5 | E44R;L48R | decreasing interaction strength
6 | E44R;E45R | decreasing interaction strength
